Publication PMC9845754

Target: taxol-stabilized microtubules polymerized from porcine brain tubulin (porcine) (UniProt P02550)
Assay: co-sedimentation; 0, 1, 2, 4, 6, 8 or 10 µM ICR2-His6 added to taxol-stabilized microtubules (5 µM tubulin) in PEMT (100 mM PIPES, 1 mM EGTA, 1 mM MgCl2, 1 mM GTP, 20 µM taxol, pH 6.9); 100,000 g, 25°C, 15 min; SDS-PAGE, Coomassie, densitometry

stoichiometry N (mol ICR2-His6 per mole of tubulin): 0.85
Substance: ICR2-His6 (from UniProt Q9ZQC5 56-583) (natural protein)
